Data taken from article PMC10904058 (2024).

Target: FASN of the SPR analysis (UniProt P49327 1-2511)
Experiment: SPR

B1: TRIM56 of the SPR analysis (enzyme)
chain: MVSHGSSPSLLEALSSDFLACKICLEQLRAPKTLPCLHTYCQDCLAQLADGGRVRCPECRETVPVPPEGVASFKTNFFVNGLLDLVKARACGDLRAGKPACALCPLVGGTSTGGPATARCLDCADDLCQACADGHRCTRQTHTHRVVDLVGYRAGWYDEEARERQAAQCPQHPGEALRFLCQPCSQLLCRECRLDPHLDHPCLPLAEAVRARRPGLEGLLAGVDNNLVELEAARRVEKEALARLREQAARVGTQVEEAAEGVLRALLAQKQEVLGQLRAHVEAAEEAARERLAELEGREQVARAAAAFARRVLSLGREAEILSLEGAIAQRLRQLQGCPWAPGPAPCLLPQLELHPGLLDKNCHLLRLSFEEQQPQKDGGKDGAGTQGGEESQSRREDEPKTERQGGVQPQAGDGAQTPKEEKAQTTREEGAQTLEEDRAQTPHEDGGPQPHRGGRPNKKKKFKGRLKSISREPSPALGPNLDGSGLLPRPIFYCSFPTRMPGDKRSPRITGLCPFGPREILVADEQNRALKRFSLNGDYKGTVPVPEGCSPCSVAALQSAVAFSASARLYLINPNGEVQWRRALSLSQASHAVAALPSGDRVAVSVAGHVEVYNMEGSLATRFIPGGKASRGLRALVFLTTSPQGHFVGSDWQQNSVVICDGLGQVVGEYKGPGLHGCQPGSVSVDKKGYIFLTLREVNKVVILDPKGSLLGDFLTAYHGLEKPRVTTMVDGRYLVVSLSNGTIHIFRVRSPDS
B1 gave a Kd of 17 nM.
